Measured values: publication PMC4081077, “Sequence-specific interactions of Rep proteins with ssDNA in the AT-rich region of the plasmid replication origin”

Columns and labels:
[1] = target: T1, TrfA-33 G254D/S267L (monomeric) (plasmid RK2, UniProt P07676 98-382, G254D;S267L); experiment: SPR; 0.1-1 uM TrfA; response over five times lower than wild type; EMSA: 40 mM HEPES-KOH pH 8, 25 mM Tris-HCl pH 7.6, 100 mM NaCl, 4% sucrose, 4 mM DTT, 80 ug/ml BSA, 32 C 20 min, 1 pmol probe, 5-20 pmol Rep; SPR: HBS-EP (150 mM NaCl, 10 mM HEPES pH 7.4, 3 mM EDTA, 0.005% P20); details: protein: recombinant; label: Alexa555 3' tailed (EMSA); immobilized on streptavidin chip (SPR); fluorescent (gel filtration)
T1 sequence: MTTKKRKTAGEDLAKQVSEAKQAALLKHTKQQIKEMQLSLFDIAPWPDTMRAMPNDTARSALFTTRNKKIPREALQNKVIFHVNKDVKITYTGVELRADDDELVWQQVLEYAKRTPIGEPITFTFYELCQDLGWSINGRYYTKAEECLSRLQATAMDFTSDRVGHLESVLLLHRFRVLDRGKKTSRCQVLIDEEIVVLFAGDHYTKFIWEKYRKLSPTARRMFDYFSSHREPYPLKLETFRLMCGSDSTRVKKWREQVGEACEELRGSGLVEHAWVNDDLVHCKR

[2] = target: T1, TrfA-33 G254D/S267L (monomeric); experiment: EMSA; EMSA: 40 mM HEPES-KOH pH 8, 25 mM Tris-HCl pH 7.6, 100 mM NaCl, 4% sucrose, 4 mM DTT, 80 ug/ml BSA, 32 C 20 min, 1 pmol probe, 5-20 pmol Rep; SPR: HBS-EP (150 mM NaCl, 10 mM HEPES pH 7.4, 3 mM EDTA, 0.005% P20); details: protein: recombinant; label: Alexa555 3' tailed (EMSA); immobilized on streptavidin chip (SPR); fluorescent (gel filtration)
[3] = target: T1, TrfA-33 G254D/S267L (monomeric); experiment: EMSA; up to 20 pmol TrfA per 1 pmol probe; EMSA: 40 mM HEPES-KOH pH 8, 25 mM Tris-HCl pH 7.6, 100 mM NaCl, 4% sucrose, 4 mM DTT, 80 ug/ml BSA, 32 C 20 min, 1 pmol probe, 5-20 pmol Rep; SPR: HBS-EP (150 mM NaCl, 10 mM HEPES pH 7.4, 3 mM EDTA, 0.005% P20); details: protein: recombinant; label: Alexa555 3' tailed (EMSA); immobilized on streptavidin chip (SPR); fluorescent (gel filtration)
RepE R118P (monomeric) = RepE R118P (monomeric) (plasmid F, UniProt P03856 1-251, R118P); experiment: gel filtration; tripartite with plasmid cccDNA; EMSA: 40 mM HEPES-KOH pH 8, 25 mM Tris-HCl pH 7.6, 100 mM NaCl, 4% sucrose, 4 mM DTT, 80 ug/ml BSA, 32 C 20 min, 1 pmol probe, 5-20 pmol Rep; SPR: HBS-EP (150 m)
[4] = target: T1, TrfA-33 G254D/S267L (monomeric); experiment: SPR; 0.1-1 uM TrfA; higher affinity than bottom ssDNA; EMSA: 40 mM HEPES-KOH pH 8, 25 mM Tris-HCl pH 7.6, 100 mM NaCl, 4% sucrose, 4 mM DTT, 80 ug/ml BSA, 32 C 20 min, 1 pmol probe, 5-20 pmol Rep; SPR: HBS-EP (150 mM NaCl, 10 mM HEPES pH 7.4, 3 mM EDTA, 0.005% P20); details: protein: recombinant; label: biotin; blunt

B1: ssDNA DUEoriV bottom swap R (ssDNA)
DNA: CCACCGCATTGGACAGAAAATTGGACGAAAATTTGGTTATAAATTAAACCTTGTTTTTAACCAGGGCTGC
binding signal [1]: < 0.2 SPR response relative to N2

B2: ssDNA DUEoriV bottom swap M1-R (ssDNA)
DNA: CCACCGCATTGGACAGAAAAAACCTGCTTTTAAACCAATATTTATAAACCTTGTTTTTAACCAGGGCTGC
binding result [2]: no binding

B3: ssDNA DUEoriV bottom swap M2-R (ssDNA)
DNA: CCACCGCATTGGACAGAAAATTGGACGAAAATAACCAATATTTATAAACCTTGTTTTTAACCAGGGCTGC
binding result [2]: no binding

B4: ssDNA DUEoriV top (ssDNA)
DNA: CCACCGCTAACCTGTCTTTTAACCTGCTTTTAAACCAATATTTATAAACCTTGTTTTTAACCAGGGCTGC
binding result [3]: no binding

B5: ssDNA DUEoriS bottom (ssDNA)
DNA: GCTCTAAAAAAGAAGATCTAAAAACTATAAAAAAAATAATTATAAAAATATCCCCGTG
binding result (RepE R118P (monomeric)): binds

B6: dsDNA iterons (five RK2 iterons) (dsDNA)
DNA 1: CCTGCGGTATTGACACTTGAGGGGCGCGACTACTGACAGATGAGGGGCGCGATCCTTGACACTTGAGGGGCAGAGTGATGACAGATGAGGGGCGCACCTATTGACATTTGAGGGGCTGTCCACAGGCAG
DNA 2: CTGCCTGTGGACAGCCCCTCAAATGTCAATAGGTGCGCCCCTCATCTGTCATCACTCTGCCCCTCAAGTGTCAAGGATCGCGCCCCTCATCTGTCAGTAGTCGCGCCCCTCAAGTGTCAATACCGCAGG
binding result [4]: binds
